To fix the notation:
B1: target 1 C6A,U11G (mixed)
RNA 1: CACCCGUGCAAAAAUGCAGGGGUCUAAAACUGAGCGGAUAACCUCUCUAUGG
RNA 2: GGGAAUGGAUCCACAUCUACGAAUUCGUACCAUAGAGAGGGUAUCAGCUCACCGAGAUCGGAAGAGCACACGU
B2: target 1 C6G,C22A (mixed)
RNA 1: B1 RNA 1
RNA 2: B1 RNA 2 with C30A, G41U, A46G
B3: target 1 A1U,U8A (mixed)
RNA 1: B1 RNA 1
RNA 2: B1 RNA 2 with G41U, U44A, A46C, A51U
B4: target 3 C1G,C6U (mixed)
RNA 1: CACCCGUGCAAAAUUGCAGGGGUCUAAAACGACCUGAAUAUUUCAGAUCAAA
RNA 2: GGGAAUGGAUCCACAUCUACGAAUUCGUUUUUGAUCUGAAAUAUUUAGGUGUGCAGAUCGGAAGAGCACACGU
B5: target 3 insC 3' of 8,insG 3' of 6 (mixed)
RNA 1: B4 RNA 1
RNA 2: GGGAAUGGAUCCACAUCUACGAAUUCGUUUUUGAUCUGAAAUAUCUCGAGGUCUGCAGAUCGGAAGAGCACACGU
B6: target 3 insA 3' of 21,insU 3' of 4 (mixed)
RNA 1: B4 RNA 1
RNA 2: GGGAAUGGAUCCACAUCUACGAAUUCGUUUUAUGAUCUGAAAUAUUCAGUGUCUGCAGAUCGGAAGAGCACACGU
B7: target 3 insA 3' of 7 (mixed)
RNA 1: B4 RNA 1
RNA 2: GGGAAUGGAUCCACAUCUACGAAUUCGUUUUUGAUCUGAAAUAUUACAGGUCUGCAGAUCGGAAGAGCACACGU
B8: target 3 insG 3' of 8,insA 3' of 7 (mixed)
RNA 1: B4 RNA 1
RNA 2: B5 RNA 2 with C45G, C47A, G48C
B9: target 3 insC 3' of 5,insA 3' of 4 (mixed)
RNA 1: B4 RNA 1
RNA 2: B5 RNA 2 with C45U, U46C, C47A, G48C, A49G, G50A
B10: target 3 insA 3' of 14,insG 3' of 5 (mixed)
RNA 1: B4 RNA 1
RNA 2: B5 RNA 2 with U42A, A43U, U44A, C45U, G48A, A49G
B11: target 3 complement block 4-9 (mixed)
RNA 1: B4 RNA 1
RNA 2: B4 RNA 2 with A43U, U44A, U45A, U46G, A47U, G48C, G51C
B12: target 3 G3A,A5G (mixed)
RNA 1: B4 RNA 1
RNA 2: B4 RNA 2 with U46C, A47G, G49A, G51C
B13: target 3 insA 3' of 7,insU 3' of 5 (mixed)
RNA 1: B4 RNA 1
RNA 2: B5 RNA 2 with C45U, U46A, G48A, A49U
B14: target 3 insU 3' of 22,insC 3' of 9 (mixed)
RNA 1: B4 RNA 1
RNA 2: B6 RNA 2 with A32U, U45C, C47U, A48C, G49A, U50G
B15: target 3 insA 3' of 21 (mixed)
RNA 1: B4 RNA 1
RNA 2: GGGAAUGGAUCCACAUCUACGAAUUCGUUUUAUGAUCUGAAAUAUUCAGGUCUGCAGAUCGGAAGAGCACACGU
B16: target 3 G4C,A12C (mixed)
RNA 1: B4 RNA 1
RNA 2: B4 RNA 2 with A40C, U46C, G48C, G51C
B17: target 3 insC 3' of 9,insG 3' of 8 (mixed)
RNA 1: B4 RNA 1
RNA 2: B5 RNA 2 with U44C, C45U, U46G, C47U, G48C
B18: target 3 insA 3' of 7,insA 3' of 2 (mixed)
RNA 1: B4 RNA 1
RNA 2: B5 RNA 2 with C45U, U46A, G48A, A49G, G51U, U52A
B19: target 3 insU 3' of 16,insU 3' of 4 (mixed)
RNA 1: B4 RNA 1
RNA 2: B6 RNA 2 with A32U, U33G, G34A, A35U, U36C, C37U
B20: target 3 insU 3' of 4,insC 3' of 4 (mixed)
RNA 1: B4 RNA 1
RNA 2: B5 RNA 2 with C45U, U46C, C47A, A49U, G50C
B21: target 3 insC 3' of 22,insU 3' of 3 (mixed)
RNA 1: B4 RNA 1
RNA 2: B6 RNA 2 with U31C, A32U, U50G, G51U
B22: target 3 U8C (mixed)
RNA 1: B4 RNA 1
RNA 2: B4 RNA 2 with U44C, U46C, G51C
B23: target 3 insU 3' of 4,insU 3' of 1 (mixed)
RNA 1: B4 RNA 1
RNA 2: B5 RNA 2 with C45U, U46C, C47A, A49U, G51U, U52C, C53U
B24: target 3 insG 3' of 7,insA 3' of 7 (mixed)
RNA 1: B4 RNA 1
RNA 2: B5 RNA 2 with C45U, U46G, C47A, G48C
B25: target 3 insA 3' of 7,insC 3' of 7 (mixed)
RNA 1: B4 RNA 1
RNA 2: B5 RNA 2 with C45U, U46A, G48C
B26: target 3 U2C,G14A (mixed)
RNA 1: B4 RNA 1
RNA 2: B4 RNA 2 with G38A, U46C, U50C, G51C
B27: target 3 complement block 5-8 (mixed)
RNA 1: B4 RNA 1
RNA 2: B4 RNA 2 with U44A, U45A, U46G, A47U, G51C
B28: target 3 insU 3' of 4,insG 3' of 1 (mixed)
RNA 1: B4 RNA 1
RNA 2: B5 RNA 2 with C45U, U46C, C47A, A49U, G51U, U52C, C53G
B29: target 3 insA 3' of 22,insC 3' of 5 (mixed)
RNA 1: B4 RNA 1
RNA 2: B6 RNA 2 with U31A, A32U, G49C, U50G
B30: target 3 A5C,U22A (mixed)
RNA 1: B4 RNA 1
RNA 2: B4 RNA 2 with U30A, U46C, A47C, G51C
B31: target 3 insG 3' of 6,insA 3' of 4 (mixed)
RNA 1: B4 RNA 1
RNA 2: B5 RNA 2 with C45U, U46C, C47G, G48A, A49G, G50A

Where a chain is given by its changes, count along the chain named. Names and notes keep the numbering of the source.

The series has as its target T1, EsCas13d, nuclease-dead (Eubacterium siraeum, UniProt B0MS50, R295A;H300A;R849A;H854A).
T1 sequence: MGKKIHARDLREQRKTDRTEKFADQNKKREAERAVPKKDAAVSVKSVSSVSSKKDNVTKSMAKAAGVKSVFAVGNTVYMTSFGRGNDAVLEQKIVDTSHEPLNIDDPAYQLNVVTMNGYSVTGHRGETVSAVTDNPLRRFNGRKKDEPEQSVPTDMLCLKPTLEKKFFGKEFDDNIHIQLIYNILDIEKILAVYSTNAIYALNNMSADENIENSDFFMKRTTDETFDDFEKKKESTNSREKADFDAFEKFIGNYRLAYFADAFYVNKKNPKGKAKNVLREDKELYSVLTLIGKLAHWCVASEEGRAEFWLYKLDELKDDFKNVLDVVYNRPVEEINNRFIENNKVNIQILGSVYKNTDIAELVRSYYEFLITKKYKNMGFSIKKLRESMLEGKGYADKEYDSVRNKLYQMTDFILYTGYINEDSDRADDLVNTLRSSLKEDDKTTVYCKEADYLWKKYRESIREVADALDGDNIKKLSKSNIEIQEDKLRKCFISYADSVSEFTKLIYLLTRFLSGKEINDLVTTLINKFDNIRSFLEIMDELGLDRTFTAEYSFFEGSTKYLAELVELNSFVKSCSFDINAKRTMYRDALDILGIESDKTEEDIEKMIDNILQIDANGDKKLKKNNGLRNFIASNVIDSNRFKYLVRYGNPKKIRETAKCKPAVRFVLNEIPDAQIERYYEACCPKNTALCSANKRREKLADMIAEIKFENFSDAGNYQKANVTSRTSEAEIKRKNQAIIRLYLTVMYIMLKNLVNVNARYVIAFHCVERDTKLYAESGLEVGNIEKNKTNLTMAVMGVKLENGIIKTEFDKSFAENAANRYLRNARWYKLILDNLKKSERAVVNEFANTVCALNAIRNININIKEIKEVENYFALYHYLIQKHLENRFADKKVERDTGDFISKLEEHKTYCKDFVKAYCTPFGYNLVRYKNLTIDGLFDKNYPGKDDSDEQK
Nature of the series: crRNA (strand 1, pre-loaded); Mg2+; 40 mM Tris-HCl pH 7.5, 150 mM NaCl, 6 mM MgCl2, 1 mM DTT, 0.1% Tween-20, 0.2 mg/ml BSA; 25 C; 10 min per concentration, then washed. The settings on record: tags: His6-TwinStrep-SUMO cleaved; N-terminal SNAP kept (SNAP-Surface 488); label: 3' end held by stalled T7 RNA polymerase.
B1 had a dissociation constant Kd of 0.0108 ± 0.0004 µM.
B2: the dissociation constant (Kd) was 0.0147 ± 0.001 µM.
Molecule B3 displayed a dissociation constant Kd of 0.0267 ± 0.0013 µM.
For B4, the affinity, expressed as Kd, was 0.0221 ± 0.00255 µM. This Kd and that of the molecule before are within 1.5-fold of each other.
Regarding B5, the Kd worked out at 0.0795 ± 0.0205 µM.
Take B6: the affinity, expressed as Kd, was 0.0119 ± 0.0021 µM. This Kd is about 6.7-fold lower than that of the molecule before.
B7 gave a Kd of 0.044 ± 0.0085 µM. This Kd is about 3.7-fold higher than that of the molecule before.
With B8, the Kd came to 0.042 ± 0.006 µM.
For B9, the equilibrium dissociation constant (Kd) was determined as 0.0098 ± 0.0009 µM. This Kd lies about 4.3-fold lower than the previous one.
On to B10, for which the affinity, expressed as Kd, was 0.105 ± 0.031 µM.
In the case of B11, binding was characterised by a dissociation constant (Kd) of 0.0675 ± 0.018 µM.
For B12 the value was 0.0425 ± 0.006 µM.
On to B13, for which the affinity, expressed as Kd, was 0.0157 ± 0.0013 µM.
B14 registered a Kd of 0.0825 ± 0.0215 µM.
On to B15, for which binding was put at a Kd of 0.0335 ± 0.0045 µM.
B16 had a Kd of 0.095 ± 0.03 µM.
For the molecule B17, binding was characterised by a dissociation constant (Kd) of 0.0825 ± 0.0125 µM.
Next, B18: 0.051 ± 0.008 µM; B19: 0.037 ± 0.007 µM.
B20 registered a dissociation constant (Kd) of 0.0195 ± 0.0025 µM.
The molecule B21 gave a Kd of 0.058 ± 0.01 µM.
Regarding B22, binding was characterised by a dissociation constant (Kd) of 0.0305 ± 0.00225 µM.
On to B23, for which the Kd came out at 0.037 ± 0.007 µM.
In the case of B24, binding was put at a Kd of 0.0395 ± 0.005 µM.
The molecule B25 displayed a Kd of 0.048 ± 0.0055 µM.
Turning to B26, the Kd was about 0.0645 µM.
For B27, the dissociation constant (Kd) was 0.0605 ± 0.006 µM.
The molecule B28 gave a Kd of 0.043 ± 0.0115 µM.
As for B29, the Kd is 0.0249 ± 0.00335 µM.
For B30 the value was 0.0605 ± 0.0105 µM; for B31, 0.0123 ± 0.0011 µM.

The values are drawn from PMC10786891, “Massively parallel profiling of RNA-targeting CRISPR-Cas13d”.
